US20210206855A1 (ADAGENE, published 2021)
Numbering of substitutions follows the chain as printed.

T1: cynomolgus monkey CTLA4 antigen fused with human FC fragment (cynomolgus monkey, UniProt G7PL88 36-161, fused to a human Fc fragment that is not in the letters)
T1 sequence: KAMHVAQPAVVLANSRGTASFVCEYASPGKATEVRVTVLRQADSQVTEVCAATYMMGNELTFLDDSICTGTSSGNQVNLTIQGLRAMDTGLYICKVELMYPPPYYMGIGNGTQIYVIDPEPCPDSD

T2: recombinant human CTLA4-Fc (Sino Biological, 11159-H03H) (human, UniProt P16410 37-162)
T2 construct: bought; whole entry named; Biotinylated in the yeast display assays; also called human CTLA4 fused with human FC fragment; biotinylated CTLA4-Fc; not shown: human Fc fragment
T2 sequence (looked up): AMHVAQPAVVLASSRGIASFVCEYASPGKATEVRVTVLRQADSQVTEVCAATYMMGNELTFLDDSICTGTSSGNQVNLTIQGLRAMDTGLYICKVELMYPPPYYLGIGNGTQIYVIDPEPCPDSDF

B1: B15722 (Fab, V domains shown)
VH: EVQLVESGGGLVQPGGSLRLSCAASGFTFSDYGIHWVRQAPGKGLEWIGEIYHSGSTYYSPSLKSRVTISRDNSKNTLYLQLNSLRAEDTAVYYCARDVAPGSSGYYDGFDFWGQGTLVTVSS
VL: DIQLTQSPSSLSASVGDRVTITCRASQGIGSSLAWYQQKPGKAPKLLIYDASNRATGIPSRFSGSGSGTDFTLTISSLQPEDFATYYCQQYDQWPPWTFGQGTKVEIKR
notes: Fab hit from E. coli
B2: B15740 (Fab, V domains shown)
VH: EVQLVESGGGLVQPGGSLRLSCAASGFTFSDYWIHWVRQAPGKGLEWIGWISPSGGGTKYAQKFQGRVTISRDNSKNTLYLQLNSLRAEDTAVYYCARGAYEFDYWGQGTLVTVSS
VL: DIQLTQSPSSLSASVGDRVTITCRASQSVSSRFLAWYQQKPGKAPKLLIYDASNRATGIPSRFSGSGSGTDFTLTISSLQPEDFATYYCQQSYPTPLTFGQGTKVEIKR
notes: Fab hit from E. coli
B3: TY22566 (antibody, IgG1, V domains shown)
VH: EVQLVESGGGLVQPGGSLRLSCAASGYSISSGYHWSWIRQAPGKGLEWLARIDWDDDKYYSTSLKSRLTISRDNSKNTLYLQLNSLRAEDTAVYYCARSYVYFDYWGQGTLVTVSS
VL: EVGSYPNPASDCVPYYYACAYSGRSAGGGGSPLGLAGSGGSDIQLTQSPSSLSASVGDRVTITCRASQSVRGRFLAWYQQKPGKAPKLLIYDASNRATGIPSRFSGSGSGTDFTLTISSLQPEDFATYYCQQSSSWPPTFGQGTKVEIKR
B4: TY22564 (antibody, IgG1, V domains shown)
VH: B3 VH
VL: EVGSYYSAYPACDSHYPYCNSAGRSAGGGGSPLGLAGSGGSDIQLTQSPSSLSASVGDRVTITCRASQSVRGRFLAWYQQKPGKAPKLLIYDASNRATGIPSRFSGSGSGTDFTLTISSLQPEDFATYYCQQSSSWPPTFGQGTKVEIKR
B5: TY22563 (antibody, IgG1, V domains shown)
VH: B3 VH
VL: B4 VL with N20Q, A22S
B6: TY22402 (antibody, IgG1, V domains shown)
VH: B3 VH
VL: B4 VL with Y6I, S7V, A8H, Y9H, P10S, A11D, S14A, H15F, N20D, A22S
notes: also called masking peptide B13180
B7: TY22565 (antibody, IgG1, V domains shown)
VH: B3 VH
VL: B3 VL with N7Q, A9S
B8: TY22401 (antibody, V domains shown)
VH: B3 VH
VL: EVGSYNFVADSCPDHPYPCSASGRSAGGGGSPLGLAGSGGSDIQLTQSPSSLSASVGDRVTITCRASQSVRGRFLAWYQQKPGKAPKLLIYDASNRATGIPSRFSGSGSGTDFTLTISSLQPEDFATYYCQQSSSWPPTFGQGTKVEIKR
notes: peptide fused to the N-terminus of the light chain; also called masking peptide B13189

Target: T1, cynomolgus monkey CTLA4 antigen fused …
Experiment: ELISA, captured Fab

| binding result | Binder |
| --- | --- |
| binds | B1 |
| binds | B2 |

Target: T2, recombinant human CTLA4-Fc (Sino …)
Experiment: ELISA, coated human CTLA4-Fc, batch 2
Procedure: (§1) Plates were blocked with PBS supplemented with 3% non-fat milk at 37° C. for 1 hour. After washing, 100 μL of 3-fold serial dilutions of antibodies were added to each well. After incubation at 37° C. for 1 hour, plates were washed four times, and […] conjugated anti-human IgG (Fab specific) (1:6000 dilution) was added to each well. Plates were incubated at 37° C. for 1 hour, washed four times, and then 50 μL TMB substrate solution was added to each well, and the plate was incubated at room temperature. […] The EC₅₀ was evaluated by fitting the ELISA data using the asymmetrical sigmoidal (five-parameter logistic equation) model of GraphPad Prism 6 software.

| EC50 [nM] | LogEC50 [log M] | Binder |
| --- | --- | --- |
| 163 | -6.79 | B3 |
| 39 | -7.41 | B4 |
| 47.7 | -7.32 | B5 |
| 125 | -6.9 | B6 |
| 210 | -6.68 | B7 |
| 15.9 | -7.8 | B8 |

Target: T2, recombinant human CTLA4-Fc (Sino …)
Experiment: ELISA, coated human CTLA4-Fc, batch 1
Procedure: as §1

| EC50 [nM] | LogEC50 [log M] | Binder |
| --- | --- | --- |
| 478 | -6.32 | B6 |
| 23.8 | -7.62 | B8 |
